Test results published in the supplement of paper PMC10126150.
± gives the standard deviation of the averaged measurements.

tested on: ATP; assay: switch fluorescence ratio, 500 uM ATP over buffer (Cy3 cluster intensity, sum of 5 cycles each) (fold (ratio)); higher = stronger signal-on switching upon ATP binding; sequences stand for … in TCGTCGGCAGCGTCAGATGTGTATAAGAGACAGTTTTTTTTTTTTTTTTTTTTTTTTT…TC; details: aptamer strand: ATP DNA aptamer (quencher-CACCTGGGGGAGTATTGCGGAGGAAGG + anchor), 100 nM annealed; ATP concentration: 500 uM
How it was run: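 After annealing to 100 nM quencher-labelled ATP aptamer, Cy3-labelled switching-strand clusters on a modified Illumina MiSeq flow-cell were imaged in selection buffer. A second image followed after 15 min with 500 uM ATP at 22 °C, and five such buffer/ATP cycles were done, each separated by NaOH stripping and re-annealing. The fluorescence ratio, averaged per switch-domain sequence, is summed target-cycle over summed buffer-cycle Cy3 intensity per cluster, with clusters outside 100-1000 RFU excluded.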
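Further: ATP exposure 15 min at 22 °C before imaging.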

| Sequence | switch fluorescence ratio |
| --- | --- |
| TAAGTTATAG | 1.02 ± 0.042 |
| GCGATCAGGT | 1.02 ± 0.017 |
| TAGTAGTTTT | 1.01 ± 0.052 |
| ATGCGGGTG | 1.04 ± 0.061 |
| TTTAACGTAC | 1.83 ± 0.15 |
| AAGGGGAATG | 1.02 ± 0.056 |
| TTTGTTTGG | 1 ± 0.017 |
| ATTAAAGTAG | 1.006 ± 0.0067 |
| ATTTAAGTT | 1.0014 ± 0.00081 |
| TACATTAATT | 1.02 ± 0.047 |
| TGATAAAGAT | 1.02 ± 0.034 |
| GCGTCAAGAT | 1.04 ± 0.042 |
| GGGCCGTTGC | 0.948 ± 0.029 |
| AGATGAGGAC | 0.922 ± 0.049 |
| TTTTGGATAA | 1.016 ± 0.0051 |
| AACGCATAGG | 1.176 ± 0.0078 |
| TCACGTGGCT | 0.975 ± 0.015 |
| TTTTTTTACT | 1.02 ± 0.029 |
| GGGGTTCACG | 0.988 ± 0.005 |
| TTTGTTTGGA | 1.01 ± 0.046 |
| TAGCCGGGGA | 1.01 ± 0.032 |
| CCTGGCAGAG | 1.22 ± 0.048 |
| GACTGGCACG | 1.03 ± 0.034 |

| Sequence | switch fluorescence ratio |
| --- | --- |
| GTTTTATGGG | 0.969 ± 0.038 |
| CAGTGGACCG | 1.004 ± 0.0011 |
| ATGTCGGCTT | 1.03 ± 0.018 |
| ACCAGTGGGC | 1.04 ± 0.049 |
| TCGGGGAAGT | 1.04 ± 0.042 |
| GGTGGAAGGG | 0.975 ± 0.03 |
| TAAAATATTA | 1.03 ± 0.02 |
| CGGACGGGTT | 0.985 ± 0.019 |
| GTGGTTCTTG | 0.99 ± 0.019 |
| TTAAATTTTG | 1.015 ± 0.0084 |
| CGAGGAGGGA | 0.9686 ± 0.0093 |
| TCCTTTGGTC | 0.987 ± 0.022 |
| GGATGCAATG | 1.16 ± 0.025 |
| CGATTTTTGT | 0.982 ± 0.02 |
| GGACCCGCCG | 1.025 ± 0.0016 |
| AAACGGATGG | 0.968 ± 0.016 |
| CAGAGGGAAT | 1.05 ± 0.032 |
| TGGTGGGAGG | 1 ± 0.015 |
| TTGGGAATAA | 1.02 ± 0.0046 |
| GATAATTAGG | 1.01 ± 0.02 |
| GGAGTCCAGG | 1.15 ± 0.032 |
| TCAAGTTAAG | 0.9772 ± 0.0014 |
| ATTTGGAGGG | 0.969 ± 0.0034 |

| Sequence | switch fluorescence ratio |
| --- | --- |
| GCGGTGGATG | 1.03 ± 0.012 |
| TTAGAGTATG | 1.0206 ± 0.0007 |
| TTTAATTGTA | 1.01 ± 0.044 |
| GGCGTTGTTC | 0.984 ± 0.034 |
| TTTGTCCTTT | 1.029 ± 0.0084 |
| TCGGGAGGGT | 1.02 ± 0.023 |
| ATCAGCGCGG | 1.013 ± 0.0027 |
| CAACATTTTC | 1.03 ± 0.054 |
| ATTTAGACGT | 0.974 ± 0.026 |
| GCTCTTCCCG | 1.319 ± 0.011 |
| GGGTTAAATT | 1.01 ± 0.038 |
| CTCTGAGGGG | 1.16 ± 0.1 |
| TCGACACTGA | 1.058 ± 0.0022 |
| GTGATCCTTC | 1.03 ± 0.034 |
| GAGATGTTAG | 0.971 ± 0.017 |
| TAGGGGTACA | 1.03 ± 0.016 |
| CTGTGTAGTG | 0.9954 ± 0.002 |
| CAGTGCGCTT | 1.1 ± 0.085 |
| TGGAGTAAAA | 1.03 ± 0.053 |
| AGCGCTTATG | 1 ± 0.022 |
| ACGAGTAGGC | 0.986 ± 0.021 |
| GAGGTTAAAT | 0.992 ± 0.034 |
| TTTGGGCTTC | 1.0067 ± 0.00097 |

| Sequence | switch fluorescence ratio |
| --- | --- |
| AGACTATGTG | 0.991 ± 0.024 |
| TTTAATATGA | 0.997 ± 0.035 |
| GCGATCCTGT | 1.02 ± 0.015 |
| CACTTTTTTT | 1.01 ± 0.063 |
| GTTATCAGGG | 0.995 ± 0.026 |
| TGGATATTTT | 0.993 ± 0.044 |
| AGTTATTTTT | 0.991 ± 0.011 |
| GCACTTTAGC | 1.03 ± 0.018 |
| CGCATCGGTC | 1.16 ± 0.049 |
| ATGGGGGGG | 1.01 ± 0.014 |
| GACTTTATGG | 0.99 ± 0.035 |
| GGGTGGAGCT | 1 ± 0.019 |
| GCGAAGGGGG | 1.03 ± 0.067 |
| GCCCACCGAT | 1.06 ± 0.031 |
| TTTTCATCGC | 1.18 ± 0.18 |
| CATTCGTTTC | 1.15 ± 0.05 |
| AAAGTACTCG | 1.12 ± 0.0043 |
| TCGTGCCAGG | 1.032 ± 0.01 |
| AATAAGAGTT | 0.995 ± 0.05 |
| GAAATCATCA | 0.96 ± 0.025 |
| ATAAGCCCCG | 0.993 ± 0.049 |
| AGGTCGAGGG | 0.997 ± 0.026 |
| TTGGCTTAG | 0.999 ± 0.014 |

| Sequence | switch fluorescence ratio |
| --- | --- |
| ACGTCGGAG | 0.995 ± 0.046 |
| GAGAGGGGAT | 1.03 ± 0.036 |
| ATTGAGTGTG | 0.979 ± 0.022 |
| ACATTGGGGC | 0.978 ± 0.046 |
| TTCGGGTATG | 1.01 ± 0.013 |
| GTTGACAGTG | 1 ± 0.062 |
| TTGTTTTCTT | 1 ± 0.045 |
| TGCCACAGCA | 1.02 ± 0.025 |
| GAGTTTAGTT | 0.9893 ± 0.0064 |
| TTGTTTAATC | 1.036 ± 0.0097 |
| ATAAAGGGTT | 0.9936 ± 0.009 |
| TTAAACGCTT | 1.02 ± 0.043 |
| TGCATTATAC | 3.59 ± 0.19 |
| TCGGTGTTTT | 1.05 ± 0.055 |
| GCAGTGCGCC | 1.2 ± 0.05 |
| TTGGTAAAGT | 1.03 ± 0.071 |
| GGGGCCCAGG | 1 ± 0.067 |
| GAATTCTATG | 0.997 ± 0.042 |
| CGGGGAGATC | 1.03 ± 0.062 |
| CAGCCTGGGC | 0.984 ± 0.016 |
| TGATTTATGA | 0.9924 ± 0.0067 |
| AAGAGAGGGT | 0.998 ± 0.042 |
| GAGTTGGGAT | 1.01 ± 0.011 |

| Sequence | switch fluorescence ratio |
| --- | --- |
| AGGTTGGGAA | 0.944 ± 0.07 |
| CGTACGTGGC | 1.125 ± 0.0035 |
| AGAATGGTGA | 0.96 ± 0.061 |
| TAAATTAGCC | 1.03 ± 0.014 |
| TAGAGAGGCG | 0.9981 ± 0.0084 |
| GATCTGGGGC | 1.06 ± 0.036 |
| TTCGTTTCGG | 1.01 ± 0.037 |
| TAAATAGTGG | 0.987 ± 0.013 |
| CTTCTAGAT | 0.9895 ± 0.0013 |
| TTTACGCGTC | 1.16 ± 0.27 |
| GTGGCGTAGG | 0.981 ± 0.021 |
| TGGAAAGTAC | 1.28 ± 0.095 |
| GCGTTTGTGC | 1.007 ± 0.01 |
| TGACGTCAGT | 0.972 ± 0.014 |
| TACGGTCGAG | 1.1 ± 0.082 |
| GCCCAGTCAT | 0.997 ± 0.023 |
| TTGGTATACG | 0.997 ± 0.026 |
| TTATTCGTTT | 0.98 ± 0.03 |
| TGCTGAAGAT | 1.003 ± 0.0067 |
| AAGAATGTGT | 0.978 ± 0.056 |
| AAAGGGAAAA | 1 ± 0.028 |
| ATCGTGCCGT | 1.01 ± 0.041 |
| AATACGGCAC | 1.852 ± 0.006 |

| Sequence | switch fluorescence ratio |
| --- | --- |
| GGGCGGATTT | 1.024 ± 0.008 |
| GGGTATCCTC | 0.986 ± 0.037 |
| TTCGATACTT | 0.9922 ± 0.0059 |
| GTGGGGAGGG | 1 ± 0.016 |
| AATTCAGATG | 0.9623 ± 0.0077 |
| TACTTAAAGT | 1 ± 0.022 |
| TAGGGAAGGG | 0.976 ± 0.032 |
| GGTTAGATAC | 1.19 ± 0.025 |
| TGGGTAAGTG | 0.975 ± 0.022 |
| CATAGCCTAA | 1.008 ± 0.0031 |
| TTCCCACGGG | 1.64 ± 0.31 |
| GGGGATTTTT | 1 ± 0.035 |
| CGGTCACTGT | 1.03 ± 0.038 |
| CGCCCGTTGT | 1.01 ± 0.013 |
| TTAATTGAGT | 1.012 ± 0.0018 |
| ATTAATCAGT | 1.002 ± 0.0083 |
| TAATCACGGG | 1.09 ± 0.017 |
| ATTTTGGGGA | 1.005 ± 0.01 |
| TTAGGATGGC | 1.2 ± 0.28 |
